The series is described as follows: soluble on expression in E. coli; label from the status in PepcDB or PDB records.
For the sequence “MLASKMRWEIQRPDQDKVKSLTEQLHITPLVASLLVKRGFDTAESARLFLHTKDADFYDPFEMKGMKEAADRIKQAISQQEKIMIYGDYDADGVTSTSVMLHTLQKLSAQVDFYIPDRFKEGYGPNEQAFRSIKERGFSLIITVDTGIAAVHEAKVAKELGLDVIITDHHEPGPELPDVRAIVHPKQPGCTYPFKELAGVGVAFKLAHALLGELPDELLDLAAIGTIADLVPLHDENRLIATLGLERLRRTNRLGLKELIKLSGGDIGEANEETVGFQLAPRLNAVGRIEQADPAVHLLMSEDSFEAEELAAEIDQLNKERQKMVSKMTDEAIEMVEQQGLDQTAIVVAKAGWNPGVVGIVASKLVDRFYRPAIVLGIDEEKGIAKGSARSIRGFNLFESLSECRDILPHFGGHPMAAGMTLKAEDVPDLRSRLNEIADNTLTEEDFIPVQEVDLVCGVEDITVESIAEMNMLSPFGMLNPKPHVLVENAVLEDVRKIGANKTHVKMTIRNESSQLDCVGFNKGELQEGIVPGSRISIVGEMSINEWNNRKKPQLMIKDAAVSEWQLFDLRGKRTWEDTVSALPSAKRAIVSFKEDSTTLLQTEDLRREVHVISSKDQAKAFDLDGAYIVLLDPPPSLDMLARLLEGKAPERIYFIFLNHEDHFLSTFPARDHFKWYYAFLLKRGAFDVKKHGSELAKHKGWSVETINFMTKVFFDLGFVKIENGVLSVVSGAKKRDLTDSQTYQAKQQLMELDQKLNYSSAEELKEWLNKLMKQDSEAYESTRR”, the “soluble on expression in E. coli” value is on record as “not soluble”.

Take “MLATPGRFFEKFQKMDKVYRRFYQHELAEYQFTPNEIAVILFLYNNAPDLDTATDIVRCKGISKGLVARSVDSLCREGYLTAVREPADRRIMHLKLSEKSRPITERIAVKQKELAGKIECGITPEELRITSATLDKLLINTEQLLKGKENHAE”: the “soluble on expression in E. coli” value was “soluble”.

With “MLDIKFLRTNFEEVKAKLQHRGEDLTDFGRFEELDTRRRELLVQTEELKSKRNEVSQQISVLKREKKDAEALILEMREVGEKVKDLDNELRTVEEDLERLMLSIPNIPHESAPVGETEDDNVVARTWGEVKEFAFEPKPHWDLATDLGILDFERAGKVTGSRFVFYKGAGARLERALISFMLDLHTDEHGYEEVLPPYMVNRASMTGTGQLPKFEEDAFRIESEDYFLIPTAEVPVTNMHRDEILNKEQLPIRYAAFSSCFRSEAGSAGRDTRGLIRQHQFNKVELVKFVKPEDSYEELEKLTNDAERVLQLLELPYRVMSMCTGDLGFTAAKKYDIEVWIPSYGTYREISSCSNFEAFQARRANIRFRREPNGKPEHVHTLNGSGLAIGRTVAAILENYQQEDGTIIIPEVLRPYMGGKTVIK”, the “soluble on expression in E. coli” value is “soluble”.

For “MLDMELESFLSMEKQGDISDAFLSAVKAEMQQMVLYAAGLAVRNIEETNRLRQKAKELYFYYLERYSPLAEMYKGSEMSLHNAGTATLRGHKNLAGGKRIDIGLWDGSKEFFHEYCYLPDDVQIRLFISKIQLLHFVVGAITTPQYVEKVALLGKVVGSSRYLELLRSFIDLNDPSGKNYSRGLFFYDHKFDKLEEVGKEVGENLPEVIKRFFPDKWVLVDVWATWCSPCKKEFGYNKQLHAFLEEKGIAMLYCSVDEPENSDNWRNNLSAFGLTGYHYYITSKAEKELLKIPDFRMLIPRYLLFDNKGKLVHANLPRPSSEKALYEEIEKLMQGN”, the “soluble on expression in E. coli” value is “not soluble”.

As to “MLEEYRKHVAERAAEGIAPKPLDANQMAALVELLKNPPAGEEEFLLDLLTNRVPPGVDEAAYVKAGFLAAIAKGEAKSPLLTPEKAIELLGTMQGGYNIHPLIDALDDAKLAPIAAKALSHTLLMFDNFYDVEEKAKAGNEYAKQVMQSWADAEWFLNRPALAEKLTVTVFKVTGETNTDDLSPAPDAWSRPDIPLHALAMLKNAREGIEPDQPGVVGPIKQIEALQQKGFPLAYVGDVVGTGSSRKSATNSVLWFMGDDIPHVPNKRGGGLCLGGKIAPIFFNTMEDAGALPIEVDVSNLNMGDVIDVYPYKGEVRNHETGELLATFELKTDVLIDEVRAGGRIPLIIGRGLTTKAREALGLPHSDVFRQAKDVAESDRGFSLAQKMVGRACGVKGIRPGAYCEPKMTSVGSQDTTGPMTRDELKDLACLGFSADLVMQSFCHTAAYPKPVDVNTHHTLPDFIMNRGGVSLRPGDGVIHSWLNRMLLPDTVGTGGDSHTRFPIGISFPAGSGLVAFAAATGVMPLDMPESVLVRFKGKMQPGITLRDLVHAIPLYAIKQGLLTVEKKGKKNIFSGRILEIEGLPDLKVEQAFELTDASAERSAAGCTIKLNKEPIIEYLNSNIVLLKWMIAEGYGDRRTLERRIQGMEKWLANPELLEADADAEYAAVIDIDLADIKEPILCAPNDPDDARPLSAVQGEKIDEVFIGSCMTNIGHFRAAGKLLDAHKGQLPTRLWVAPPTRMDAAQLTEEGYYSVFGKSGARIEIPGCSLCMGNQARVADGATVVSTSTRNFPNRLGTGANVFLASAELAAVAALIGKLPTPEEYQTYVAQVDKTAVDTYRYLNFNQLSQYTEKADGVIFQTAV”, the “soluble on expression in E. coli” value is given as “soluble”.

Consider “MLEHLIKISRRNWSSLKVIILAGGRGKRITLFKPFLVVCGKPLISWAFDAVNKLSDKVYLGINQSHPLFTIFKHSIFKIFPTPDISYENDVKYVVESLGPPILVLPVDIAFINNNIINNLIERCAVDMCTLKSYGSYLGVTYWTGLNFSNYTDIEVKEKLYNINTWEDYIKANKECNILLEHHHHHH”, for which the “soluble on expression in E. coli” value is “soluble”.

Take “MLEILYQDEWLVAVNKPSGWLVHRSWLDRDEKVVVMQTVRDQIGQHVFTAHRLDRPTSGVLLMGLSSEAGRLLAQQFEQHQIQKRYHAIVRGWLMEEAVLDYPLVEELDKIADKFAREDKGPQPAVTHYRGLATVEMPVATGRYPTTRYGLVELEPKTGRKHQLRRHLAHLRHPIIGDSKHGDLRQNRSGAEHFGLQRLMLHASQLSLTHPFTGEPLTIHAGLDDTWMQALSQFGWRGLLPENERVEFSAPSGQDGEISSLEHHHHHH”: the “soluble on expression in E. coli” value was “not soluble”.

In the case of “MLEKELSFADLSISLSELYEAMGYADAVPDEAVEKEVRGVLGRVEAVTSPRFCFFISGGELDESKDSLSVGDTCFSIGKIITRQLRGSESFAFFAATAGTGFERFQHTLQQEGDMVKVYIADAIGSVIAEKTADCMEIALDEYIRDRGWRHTNRFSPGYCGWHVSEQKKLFPLFPSAEPCGIRLTDSGLMLPIKSVSGVIGLGDGVRKLEYTCGLCTYDRCYRRKQRGLEHHHHHH”, the “soluble on expression in E. coli” value is “soluble”.

For “MLEKNPTLEKLLKSLEDIQAIDIKIIDVHKQTTITDFMVVTSGRSSRHVKSIAQKVLEDMKVAGLPCLSSTGIEHGDWALIDFGDIILHVMQPEFRHFYNLEGLWEEHPGNSLEHHHHHH”, the “soluble on expression in E. coli” value was “not soluble”.

With “MLEQIQQALAGDQEQFQALYGQYQPVIYKCMKKYYLKDYDTEDWLQEGRIVFFRTLERFDSEKQASLGKFFKRNFENHVHSLIRHQCAYKRRTDTLSISLEQRLESAGEELVDYLGTAATDPLGQLMIQEKLAAFPTRLSSLEQQILNAYLKGYTLEEIAKVRGGTFSAVRSAYDRAKAKMKYTLENE”, the “soluble on expression in E. coli” value is recorded as “not soluble”.

Take “MLEWRGDKYVNGYYPVSSSAPDLLLECISNESKKYLPGELIAVECKWRSTVNFFIPKSDAEKYEKYFRTNKTRYRVKHLFYLFGFGWSDNAPESVYIIPSTALYEYDENTFEITFPNGELIKDKKIRMEDYKMKFKNLIYTVPENRKHLSYQTKSFDTKKKDEPMQR”: the “soluble on expression in E. coli” value is “not soluble”.

As to “MLFLDKNLELNDTELDIYNYIVANLEKVVYMRIRDLATEAHVSTTTILRFCRKFGCNGFSEFRVKLQLYLEEQKLAQIDMADETTYIDFLKRTAQPEFKAQIQNAVEILRDRELVLFAGVGSSGVIAEYGAIYFSSLFTLALHIEDPLNHPFYHLSSKLSDKICMIAISVEGENEDIIRYIHQLKAQNCKVISITNSAKSTIARLSDANIAYYINKEMYQEANITSQLPALYTIENIAREIRTQIDKEKM”, the “soluble on expression in E. coli” value is on record as “not soluble”.

Regarding “MLGAIIGDLVAWTWERDQSLFYQRLIAPKANISEVGLAVLGVTEPMLRGSSEVEWESLYLHIREIIQRDRITDISPDFNDWTEAGHQAVIPKEVKSVMHLAVSIVGGWCDAPLETTLAYSRRFHGGKEEYYLTQIAEIIYRLRQGATKQEAMEDIHYIKNWKPQGKVSLLGYAHHAWQCFLQSWDFTSALHNAMRCSYGDKHLLGALTGAIAEAMYSCEYGFIKEKYGKGSDTQFMLSLPKELSGLYRVELGLIESNKELLRTFFPKNRALTNVEVWQWFDLPNIVAHKPLSEREYQRIRLSHDTGWDARYGIYWDDGWYYVYCSGFLLNRFRVEEMQDHTYRITRIQYCTQHEEGKAYNALIKALSLDGLDMSAYSQYKD”, the “soluble on expression in E. coli” value is on record as “not soluble”.

Regarding “MLGGDWTDGTMTDFKWRHFQGDVILWAVRWYCRYPISYRDLEEMLAERGISVDHTTIYRWVQCYAPEMEKRLRWFWRRGFDPSWRLDETYVKVRGKWTYLYRAVDKRGDTIDFYLSPTRSAKAAKRFLGKALRGLKHWEKPATLNTDKAPSYGAAITELKREGKLDRETAHRQVKYLNNVVEADHGKLKILIKPVRGFKSIPTAYATIKGFEVMRALRKGQARPWCLQPGIRGEVRLVERAFGIGPSALTEAMGMLNHHFAAAA”, the “soluble on expression in E. coli” value is “not soluble”.

With “MLGRGEGMRLEEARIAVDEALSAYRRCVEAEVEEYGPEYERVTFMEYEAPAPDPCAEAFLRLVEAVRAYEAAGGSREDLDLGRERKRVYEALDKG”, the “soluble on expression in E. coli” value is reported as “soluble”.

Take “MLHFIDSSESEDDLDELPRHLPPVIRRLAPLRHATSQYNLRSTGSTSSDSSTASENDKCSDFSSLKSRRASCIELNKEDEFKVMAADKLLMAMENMKHATSSQAIRWRTTSTESLPGIIKSNRRHSKGPLELIQGLMAKKAAVGRPAKFKNLGVVGPPTLISSTVSLHEISGFVRRDRFWGAETESLFSQFEV”: the “soluble on expression in E. coli” value is on record as “not soluble”.

For the sequence “MLIDKTIILSVAFFTSSVFGQTSDKDFLKKPHVLPSAEAAYHAVYHELDSVKSGNRDEKVFGQLYVALIEDQFTFGGDLSTWPDSAFQKGDRGCKPFMAANLHNLCNNEYFLVHQDMIKLVKTVFERKNQADPSFDTICLANNGFVVSDDPENHLVYRYKHRIPMTYKATSNDQKCFGTYDTRTDTFTCMRYDASTKKMSPFELQNFLWKENTGTFHLGNGNAEVFCKKPFYTNK”, the “soluble on expression in E. coli” value is given as “not soluble”.

On to “MLIHYIDIAKRNFVIAVSSLSKTKTETNNPKGIAHTIEYLKKHKVALVVTESTGGLEIPAAKAIHRAGIAVIIANPRQTHQFAQSQSLTKTDAKDAKMPAFFAQMKAQKEDWQTMPYHPPTEAEEVLEALVNRRNQSADMRTAEKNRLHQVHETQVGSVKQLIAHFDRLIDESDKQIDDHTHTHFDGKAQVAEQIKGIGSITTATLMAMLPELGRLSHKRIASLVGIAPHPRKSGEAKFKSRCFGGRSAVLKALYMATVAATRFEPLIRDFHQRPLSEGKPYKVAVTACMRKLLETFAKFLSLTTTEIPTQVFGCFRPKYRLILPKHPLNPPRTPDNQASGLPFRRQRAHLACWRLSTGSNTSPSDGFAHSL”, for which the “soluble on expression in E. coli” value was “not soluble”.

Take “MLILGLVISCGGSKDITLPNKNVKIEGDVLTFKGKPFTGNIKMNLADKMDGYAGAMSFKDGHLDGLTDLKNDKENQQVKFTVVDGKFDGELIMKDAKQRTDIVLDIKNGAIVKYLADVQGAYKYDLSFVDNLANGTMEAQGQKFEFKDGIAKGPQGQELKLTLDPESGDLTMEAMVNGKVAGKQTIPNVLTPQYLETFIFRAVTMTNR”: the “soluble on expression in E. coli” value is “not soluble”.

Regarding “MLILVSPAKTLDFEQPPLTQIHTRPDFLAQSQELIQVCQQLTPSDIATLMKVSDSIAGLNAARFGEWKPDYSIDNAKQAIFAFRGDVYTGFDADTLTAAQLERTQSQLRILSGLYGLLRPLDLILPYRLEMGTALTNQKGKNLYEFWGNTLTDAVNSAVAAQGDGIIINLASNEYFKAIKPKFLNGQLITPVFKDFKNGQYKVISFFAKRARGMMARYIIDQQVSSIDGLKAFEVDGYYYSEELSKPNEPTFLREAQ”, the “soluble on expression in E. coli” value was “soluble”.
